This is an account of results in patent US20100260668A1 (published 2010).

For assay [1], the target named is T1, DLL4 ECD/His tag (R&D 1506-D4-050) (UniProt Q9NR61 27-529).
T1 construct: extracellular domain; Bought antigen coated on the ELISA plate; not shown: His tag
Kind of assay: direct bind ELISA, DLL4 on plate; DLL4 VD N-term.; HC Long, LC Long. (An ELISA detects its analyte on a solid surface through an enzyme-linked reagent.)

Assay [2] has as its target T1, DLL4 ECD/His tag (R&D 1506-D4-050). The assay is described as follows: direct bind ELISA, DLL4 on plate; DLL4 VD N-term.; HC Long, LC Short.
Experimental: (§1) Enzyme Linked Immunosorbent Assays to screen for antibodies that bind a desired target antigen were performed as follows. […] Plates were washed four times with PBS containing 0.02% Tween 20. Plates were blocked by the addition of 300 μL/well blocking solution (non-fat dry milk powder, various retail suppliers, diluted to 2% in PBS) for ½ hour at room temperature. Plates were washed four times after blocking with PBS containing 0.02% Tween 20.
(§2) Alternatively, one hundred microliters per well of 10 μg/ml of Histidine (His) tagged desired target antigen (R&D Systems, Minneapolis, Minn.) was added to ELISA plates coated with monoclonal mouse anti-polyHistidine antibody as described above and incubated for 1 hour at room temperature. Wells were washed four times with PBS containing 0.02% Tween 20.
One hundred microliters of antibody or DVD-Ig preparations diluted in blocking solution as described above was added to the desired target antigen plate or desired target antigen/FC fusion plate or the anti-polyHistidine antibody/His tagged desired target antigen plate prepared as described above and incubated for 1 hour at room temperature. Wells are washed four times with PBS containing 0.02% Tween 20.
Assay [3] has the same target. Kind of assay: direct bind ELISA, DLL4 on plate; DLL4 VD N-term.; HC Short, LC Short.
Experimental: as §1, §2
Plates were washed 4 times with PBS containing 0.02% Tween 20.

B1: DVD521 (bispecific antibody, human IgG1, kappa, lambda, L234A L235A)
heavy: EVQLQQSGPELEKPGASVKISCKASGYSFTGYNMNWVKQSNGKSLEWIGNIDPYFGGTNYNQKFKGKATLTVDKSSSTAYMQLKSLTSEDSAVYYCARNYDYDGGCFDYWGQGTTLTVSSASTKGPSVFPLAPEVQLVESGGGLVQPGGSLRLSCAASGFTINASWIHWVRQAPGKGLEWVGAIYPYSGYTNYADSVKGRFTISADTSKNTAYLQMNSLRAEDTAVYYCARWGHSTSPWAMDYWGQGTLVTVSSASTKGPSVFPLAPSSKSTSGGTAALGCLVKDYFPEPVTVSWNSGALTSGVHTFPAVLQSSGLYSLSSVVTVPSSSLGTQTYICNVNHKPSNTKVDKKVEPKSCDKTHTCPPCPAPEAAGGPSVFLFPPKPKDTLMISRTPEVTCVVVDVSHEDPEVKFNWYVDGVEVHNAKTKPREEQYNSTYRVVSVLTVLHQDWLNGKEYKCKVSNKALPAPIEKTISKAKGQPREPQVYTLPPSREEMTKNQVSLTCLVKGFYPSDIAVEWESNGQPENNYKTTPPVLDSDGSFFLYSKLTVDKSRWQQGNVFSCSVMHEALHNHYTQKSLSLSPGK
light: QAVVTQESALTTSPGETVTLTCRSSTGAVTTSNYANWVQEKPDHLFTGLIGGTNNRAPGVPARFSGSLIGDKAALTITGAQTEDEAIYFCALWYSNHWVFGGGTKLTVLGQPKAAPSVTLFPPDIQMTQSPSSLSASVGDRVTITCRASQVIRRSLAWYQQKPGKAPKLLIYAASNLASGVPSRFSGSGSGTDFTLTISSLQPEDFATYYCQQSNTSPLTFGQGTKVEIKRTVAAPSVFIFPPSDEQLKSGTASVVCLLNNFYPREAKVQWKVDNALQSGNSQESVTEQDSKDSTYSLSSTLTLSKADYEKHKVYACEVTHQGLSSPVTKSFNRGEC
notes: DVD-Ig; outer AB073 (DLL4), inner AB071 (VEGF); HC long, LC long linker; also called DVD521H; DVD521L
For the molecule B1, the EC50 in assay [1] amounted to 0.26 nM.

B2: DVD479 (bispecific antibody, human IgG1, kappa)
heavy: not shown
light: DIQMTQSPSSLSASVGDRVTITCRASQDVSTAVAWYQQKPGKAPKLLIYSASFLYSGVPSRFSGSGSGTDFTLTISSLQPEDFATTYYCQQSYTGTVTFGQGTKVEIKRTVAAPDIQMTQSPSSLSASVGDRVTITCRASQVIRRSLAWYQQKPGKAPKLLIYAASNLASGVPSRFSGSGSGTDFTLTISSLQPEDFATYYCQQSNTSPLTFGQGTKVEIKRTVAAPSVFIFPPSDEQLKSGTASVVCLLNNFYPREAKVQWKVDNALQSGNSQESVTEQDSKDSTYSLSSTLTLSKADYEKHKVYACEVTHQGLSSPVTKSFNRGEC
notes: DVD-Ig; outer AB015 (DLL4), inner AB071 (VEGF); HC long, LC short linker; also called DVD479H; DVD479L
For the molecule B2, in assay [2], the EC50 is 1.69 nM.

B3: DVD445 (bispecific antibody, human IgG1, kappa)
heavy: not shown
light: DIVMTQSPDSLAVSLGERATISCRASESVDNYGISFMKWFQQKPGQPPKLLIYAASNQGSGVPDRFSGSGSGTDFTLTISSLQAEDVAVYYCQQSKEVPWTFGGGTKVEIKRTVAAPDIQMTQSPSSLSASVGDRVTITCRASQVIRRSLAWYQQKPGKAPKLLIYAASNLASGVPSRFSGSGSGTDFTLTISSLQPEDFATYYCQQSNTSPLTFGQGTKVEIKRTVAAPSVFIFPPSDEQLKSGTASVVCLLNNFYPREAKVQWKVDNALQSGNSQESVTEQDSKDSTYSLSSTLTLSKADYEKHKVYACEVTHQGLSSPVTKSFNRGEC
notes: DVD-Ig; outer AB069 (DLL4), inner AB071 (VEGF); HC short, LC short linker; also called DVD445H; DVD445L
Turning to B3, in assay [3], the EC50 is 0.17 nM.

B4: DVD457 (bispecific antibody, human IgG1, kappa, L234A L235A)
heavy: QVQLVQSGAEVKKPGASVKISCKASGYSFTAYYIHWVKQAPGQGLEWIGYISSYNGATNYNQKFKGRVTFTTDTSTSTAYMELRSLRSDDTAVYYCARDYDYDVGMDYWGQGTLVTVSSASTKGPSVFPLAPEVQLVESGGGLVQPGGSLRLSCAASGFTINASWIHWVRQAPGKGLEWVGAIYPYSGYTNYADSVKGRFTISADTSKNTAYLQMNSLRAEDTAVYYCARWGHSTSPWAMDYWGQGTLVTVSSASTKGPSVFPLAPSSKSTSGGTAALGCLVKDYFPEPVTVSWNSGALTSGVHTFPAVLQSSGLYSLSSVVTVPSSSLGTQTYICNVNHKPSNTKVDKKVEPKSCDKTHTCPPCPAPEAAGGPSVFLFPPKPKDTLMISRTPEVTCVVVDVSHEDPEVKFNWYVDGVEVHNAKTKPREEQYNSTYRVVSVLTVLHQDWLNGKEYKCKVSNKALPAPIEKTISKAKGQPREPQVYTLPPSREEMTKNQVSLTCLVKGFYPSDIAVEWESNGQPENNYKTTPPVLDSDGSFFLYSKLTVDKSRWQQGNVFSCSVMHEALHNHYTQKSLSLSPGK
light: B3 light
notes: DVD-Ig; outer AB069 (DLL4), inner AB071 (VEGF); HC long, LC short linker; also called DVD457H; DVD457L
For B4, it took 0.13 nM to reach a half-maximal effect in assay [2] (EC50).

B5: DVD473 (bispecific antibody, human IgG1, kappa)
heavy: not shown
light: DIQMTQSPSSLSASVGDRVTITCRASQDVSTAVAWYQQKPGKAPKLLIYSASFLYSGVPSRFSGSGSGTDFTLTISSLQPEDFATTYYCQQSYTGTVTFGQGTKVEIKRTVAAPSVFIFPPDIQMTQSPSSLSASVGDRVTITCRASQVIRRSLAWYQQKPGKAPKLLIYAASNLASGVPSRFSGSGSGTDFTLTISSLQPEDFATYYCQQSNTSPLTFGQGTKVEIKRTVAAPSVFIFPPSDEQLKSGTASVVCLLNNFYPREAKVQWKVDNALQSGNSQESVTEQDSKDSTYSLSSTLTLSKADYEKHKVYACEVTHQGLSSPVTKSFNRGEC
notes: DVD-Ig; outer AB015 (DLL4), inner AB071 (VEGF); HC long, LC long linker; also called DVD473H; DVD473L
B5: the EC50 in assay [1] was determined as 1.8 nM.

B6: DVD451 (bispecific antibody, human IgG1, kappa, L234A L235A)
heavy: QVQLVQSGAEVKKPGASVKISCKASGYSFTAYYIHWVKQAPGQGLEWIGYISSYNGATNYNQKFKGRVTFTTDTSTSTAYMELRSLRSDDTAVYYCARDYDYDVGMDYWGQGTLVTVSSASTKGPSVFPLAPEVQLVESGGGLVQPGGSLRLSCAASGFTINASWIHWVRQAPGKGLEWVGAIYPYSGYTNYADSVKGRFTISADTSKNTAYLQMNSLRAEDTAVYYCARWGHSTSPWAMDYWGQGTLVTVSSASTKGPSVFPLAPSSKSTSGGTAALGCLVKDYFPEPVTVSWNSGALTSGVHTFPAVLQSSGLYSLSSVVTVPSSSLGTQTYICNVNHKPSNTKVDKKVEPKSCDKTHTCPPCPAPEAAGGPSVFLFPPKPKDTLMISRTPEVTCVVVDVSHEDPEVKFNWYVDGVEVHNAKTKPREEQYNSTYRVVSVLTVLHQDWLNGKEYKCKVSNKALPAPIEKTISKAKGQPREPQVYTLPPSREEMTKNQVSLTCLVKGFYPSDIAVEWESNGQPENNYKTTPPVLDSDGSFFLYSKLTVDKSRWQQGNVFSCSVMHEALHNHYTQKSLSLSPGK
light: DIVMTQSPDSLAVSLGERATISCRASESVDNYGISFMKWFQQKPGQPPKLLIYAASNQGSGVPDRFSGSGSGTDFTLTISSLQAEDVAVYYCQQSKEVPWTFGGGTKVEIKRTVAAPSVFIFPPDIQMTQSPSSLSASVGDRVTITCRASQVIRRSLAWYQQKPGKAPKLLIYAASNLASGVPSRFSGSGSGTDFTLTISSLQPEDFATYYCQQSNTSPLTFGQGTKVEIKRTVAAPSVFIFPPSDEQLKSGTASVVCLLNNFYPREAKVQWKVDNALQSGNSQESVTEQDSKDSTYSLSSTLTLSKADYEKHKVYACEVTHQGLSSPVTKSFNRGEC
notes: DVD-Ig; outer AB069 (DLL4), inner AB071 (VEGF); HC long, LC long linker; also called DVD451H; DVD451L
With B6, the EC50 in assay [1] was 0.4 nM.

B7: DVD491 (bispecific antibody, human IgG1, kappa)
heavy: not shown
light: DIQMTQSSSYLSVSLGGRVTITCKASDHINNWLAWYQQKPGNAPRLLISGATSLETGVPSRFSGSGSGKDYTLSITSLQTEDVATYYCQQYWSIPLTFGAGTKLELKRTVAAPDIQMTQSPSSLSASVGDRVTITCRASQVIRRSLAWYQQKPGKAPKLLIYAASNLASGVPSRFSGSGSGTDFTLTISSLQPEDFATYYCQQSNTSPLTFGQGTKVEIKRTVAAPSVFIFPPSDEQLKSGTASVVCLLNNFYPREAKVQWKVDNALQSGNSQESVTEQDSKDSTYSLSSTLTLSKADYEKHKVYACEVTHQGLSSPVTKSFNRGEC
notes: DVD-Ig; outer AB072 (DLL4), inner AB071 (VEGF); HC short, LC short linker; also called DVD491H; DVD491L
Molecule B7 registered an EC50 in assay [3] of 0.39 nM.

B8: DVD503 (bispecific antibody, human IgG1, kappa)
heavy: not shown
light: B7 light
notes: DVD-Ig; outer AB072 (DLL4), inner AB071 (VEGF); HC long, LC short linker; also called DVD503H; DVD503L
In assay [2], B8 yielded an EC50 of 0.33 nM.

B9: DVD497 (bispecific antibody, human IgG1, kappa)
heavy: not shown
light: DIQMTQSSSYLSVSLGGRVTITCKASDHINNWLAWYQQKPGNAPRLLISGATSLETGVPSRFSGSGSGKDYTLSITSLQTEDVATYYCQQYWSIPLTFGAGTKLELKRTVAAPSVFIFPPDIQMTQSPSSLSASVGDRVTITCRASQVIRRSLAWYQQKPGKAPKLLIYAASNLASGVPSRFSGSGSGTDFTLTISSLQPEDFATYYCQQSNTSPLTFGQGTKVEIKRTVAAPSVFIFPPSDEQLKSGTASVVCLLNNFYPREAKVQWKVDNALQSGNSQESVTEQDSKDSTYSLSSTLTLSKADYEKHKVYACEVTHQGLSSPVTKSFNRGEC
notes: DVD-Ig; outer AB072 (DLL4), inner AB071 (VEGF); HC long, LC long linker; also called DVD497H; DVD497L
In the case of B9, in assay [1], the EC50 amounted to 0.53 nM.

B10: DVD515 (bispecific antibody, human IgG1, kappa)
heavy: not shown
light: QAVVTQESALTTSPGETVTLTCRSSTGAVTTSNYANWVQEKPDHLFTGLIGGTNNRAPGVPARFSGSLIGDKAALTITGAQTEDEAIYFCALWYSNHWVFGGGTKLTVLGQPKAAPDIQMTQSPSSLSASVGDRVTITCRASQVIRRSLAWYQQKPGKAPKLLIYAASNLASGVPSRFSGSGSGTDFTLTISSLQPEDFATYYCQQSNTSPLTFGQGTKVEIKRTVAAPSVFIFPPSDEQLKSGTASVVCLLNNFYPREAKVQWKVDNALQSGNSQESVTEQDSKDSTYSLSSTLTLSKADYEKHKVYACEVTHQGLSSPVTKSFNRGEC
notes: DVD-Ig; outer AB073 (DLL4), inner AB071 (VEGF); HC short, LC short linker; also called DVD515H; DVD515L
Molecule B10 yielded an EC50 in assay [3] of 0.2 nM.

B11: DVD527 (bispecific antibody, human IgG1, kappa)
heavy: not shown
light: B10 light
notes: DVD-Ig; outer AB073 (DLL4), inner AB071 (VEGF); HC long, LC short linker; also called DVD527H; DVD527L
As for B11, the response in assay [2] was half-maximal at 0.2 nM (EC50).

Broadly, the EC50 is the concentration giving half of the maximal effect.
